Laboratory results reported in patent US20180291110A1 (Hoffmann-La Roche, published 2018).
Where a chain is given by its changes, count along the chain named.

B1: 2/99 VH7/VL5 (antibody, V domains shown)
VH: QQLVETGGGLIQPGGSLRLSCAASGFSLSSYAMSWVRQAPGKGLEWIGYIWSGGSTDYASWAKGRFTISRDNSKNTLYLQMNSLRAEDTAVYYCARRYGTSYPDYGDANGFDPWGQGTLVTVSS
VL: DIQMTQSPSSLSASVGDRVTITCRASQSISSYLSWYQQKPGKAPKLLIYRASTLASGVPSRFSGSGSGTDFTLTISSLQPEDFATYYCQQSYSSSNVDNTFGGGTKVEIK
B2: 2/99 VH22/VL5 (antibody, V domains shown)
VH: QSMQESGPGLVKPSQTLSLTCTVSGFSLSSYAMSWVRQHPGKGLEWIGYIWSGGSTDYASWAKSRVTISVDTSKNQVSLKLSSVTAADTAVYYCARRYGTSYPDYGDANGFDPWGQGTLVTVSS
VL: B1 VL
B3: 2/99 VH19/VL5 (antibody, V domains shown)
VH: B2 VH with V36I, S60P, W61S, A62L, V77F
VL: B1 VL
B4: 2/99 VH16/VL6 (antibody, V domains shown)
VH: B2 VH with S2Q, M3L, Q15E, H39P, A59N, S60P, W61S, A62L, Q116P
VL: B1 VL with D1A, M4L
B5: 2/99 VH12/VL5 (antibody, V domains shown)
VH: QVQLQESGPGLVKPSETLSLTCTVSGFSLSSYAMSWIRQPPGKGLEWIGYIWSGGSTDYNPSLKSRVTISVDTSKNQFSLKLSSVTAADTAVYYCARRYGTSYPDYGDANGFDPWGQGTLVTVSS
VL: B1 VL
B6: 2/99 VH15/VL6 (antibody, V domains shown)
VH: B2 VH with S2Q, M3L, Q15E, H39P, A59N, S60P, W61S, A62L
VL: B1 VL with D1A, M4L
B7: 2/99 VH20/VL6 (antibody, V domains shown)
VH: B2 VH with V36I, S60P, W61S, A62L
VL: B1 VL with D1A, M4L
B8: 2/99 VH5/VL6 (antibody, V domains shown)
VH: B1 VH with Q2S, L3M, V4E, I47V, S60D, W61S, A62V, Q116P
VL: B1 VL with D1A, M4L
B9: 2/99 VH9/VL5 (antibody, V domains shown)
VH: B1 VH with V4L, T6S, I11V, S27T, L28F, I47V, S60D, W61S, A62V, R96K
VL: B1 VL
B10: 2/99 VH18/VL5 (antibody, V domains shown)
VH: B5 VH with E16Q, P40H, N60A
VL: B1 VL
B11: 2/99 VH15/VL5 (antibody, V domains shown)
VH: B2 VH with S2Q, M3L, Q15E, H39P, A59N, S60P, W61S, A62L
VL: B1 VL
B12: 2/99 VH22/VL6 (antibody, V domains shown)
VH: B2 VH
VL: B1 VL with D1A, M4L
B13: 2/99 VH5/VL7 (antibody, V domains shown)
VH: B1 VH with Q2S, L3M, V4E, I47V, S60D, W61S, A62V, Q116P
VL: B1 VL with D1A, M4L, S34A
B14: 2/99 VH18/VL6 (antibody, V domains shown)
VH: B5 VH with E16Q, P40H, N60A
VL: B1 VL with D1A, M4L
B15: 2/99 VH8/VL6 (antibody, V domains shown)
VH: QQLVETGGGLIQPGGSLRLSCAASGFSLSSYAMSWVRQAPGKGLEWIGYIWSGGSTDYASWAKGRFTISKTSTTLYLQMNSLRAEDTAVYYCARRYGTSYPDYGDANGFDPWGQGTLVTVSS
VL: B1 VL with D1A, M4L
B16: 2/99 VH16/VL5 (antibody, V domains shown)
VH: B2 VH with S2Q, M3L, Q15E, H39P, A59N, S60P, W61S, A62L, Q116P
VL: B1 VL
B17: 2/99 VH2/VL7 (antibody, V domains shown)
VH: EVQLVETGGGLIQPGGSLRLSCAASGFSLSSYAMSWVRQAPGKGLEWVGYIWSGGSTDYADSVKGRFTISRDNSKNTLYLQMNSLRAEDTAVYYCARRYGTSYPDYGDANGFDPWGQGTLVTVSS
VL: B1 VL with D1A, M4L, S34A
B18: 2/99 VH13/VL5 (antibody, V domains shown)
VH: B5 VH with F78V
VL: B1 VL
B19: 2/99 VH21/VL6 (antibody, V domains shown)
VH: B2 VH with V36I
VL: B1 VL with D1A, M4L
B20: 2/99 VH13/VL6 (antibody, V domains shown)
VH: B5 VH with F78V
VL: B1 VL with D1A, M4L
B21: 2/99 VH21/VL5 (antibody, V domains shown)
VH: B2 VH with V36I
VL: B1 VL
B22: 2/99 VH1/VL6 (antibody, V domains shown)
VH: B1 VH with Q1V, I47V, S60D, W61S, A62V
VL: B1 VL with D1A, M4L
B23: 2/99 VH1/VL7 (antibody, V domains shown)
VH: B1 VH with Q1V, I47V, S60D, W61S, A62V
VL: B1 VL with D1A, M4L, S34A
B24: 2/99 VH20/VL5 (antibody, V domains shown)
VH: B2 VH with V36I, S60P, W61S, A62L
VL: B1 VL
B25: 2/99 VH12/VL6 (antibody, V domains shown)
VH: B5 VH
VL: B1 VL with D1A, M4L
B26: 2/99 VH2/VL6 (antibody, V domains shown)
VH: B17 VH
VL: B1 VL with D1A, M4L
B27: 2/99 VH11/VL5 (antibody, V domains shown)
VH: B1 VH with V4L, T6S, I11V, I47V, S60D, W61S, A62V
VL: B1 VL
B28: 2/99 VH17/VL6 (antibody, V domains shown)
VH: B2 VH with S2Q, M3L, Q15E, H39P, A59N, S60P, W61S, A62L, V70K, Q116P
VL: B1 VL with D1A, M4L
B29: 2/99 VH19/VL6 (antibody, V domains shown)
VH: B2 VH with V36I, S60P, W61S, A62L, V77F
VL: B1 VL with D1A, M4L
B30: 2/99 VH9/VL6 (antibody, V domains shown)
VH: B1 VH with V4L, T6S, I11V, S27T, L28F, I47V, S60D, W61S, A62V, R96K
VL: B1 VL with D1A, M4L
B31: 2/99 VH8/VL5 (antibody, V domains shown)
VH: B15 VH
VL: B1 VL
B32: 2/99 VH6/VL6 (antibody, V domains shown)
VH: B1 VH with S60D, W61S, A62V
VL: B1 VL with D1A, M4L
B33: 2/99 VH11/VL6 (antibody, V domains shown)
VH: B1 VH with V4L, T6S, I11V, I47V, S60D, W61S, A62V
VL: B1 VL with D1A, M4L
B34: 2/99 VH23-DANG/VL5 (antibody, V domains shown)
VH: QSMQESGPGLVKPSQTLSLTCTVSGFSLSSYAMSWIRQHPGKGLEWIGYIWSGGSTDYASWAKSRVTISKTSTTVSLKLSSVTAADTAVYYCARRYGTSYPDYGDANGFDPWGQGTLVTVSS
VL: B1 VL
B35: 2/99 VH17/VL5 (antibody, V domains shown)
VH: B2 VH with S2Q, M3L, Q15E, H39P, A59N, S60P, W61S, A62L, V70K, Q116P
VL: B1 VL

The binders below were run against T1, human transferrin receptor (recombinant, for surface plasmon resonance) (human, UniProt P02786 89-760) (assay: SPR 25C).
T1 construct: also called huTfR; human transferrin receptor-biotinylated
T1 sequence (P02786 89-760 limits assumed): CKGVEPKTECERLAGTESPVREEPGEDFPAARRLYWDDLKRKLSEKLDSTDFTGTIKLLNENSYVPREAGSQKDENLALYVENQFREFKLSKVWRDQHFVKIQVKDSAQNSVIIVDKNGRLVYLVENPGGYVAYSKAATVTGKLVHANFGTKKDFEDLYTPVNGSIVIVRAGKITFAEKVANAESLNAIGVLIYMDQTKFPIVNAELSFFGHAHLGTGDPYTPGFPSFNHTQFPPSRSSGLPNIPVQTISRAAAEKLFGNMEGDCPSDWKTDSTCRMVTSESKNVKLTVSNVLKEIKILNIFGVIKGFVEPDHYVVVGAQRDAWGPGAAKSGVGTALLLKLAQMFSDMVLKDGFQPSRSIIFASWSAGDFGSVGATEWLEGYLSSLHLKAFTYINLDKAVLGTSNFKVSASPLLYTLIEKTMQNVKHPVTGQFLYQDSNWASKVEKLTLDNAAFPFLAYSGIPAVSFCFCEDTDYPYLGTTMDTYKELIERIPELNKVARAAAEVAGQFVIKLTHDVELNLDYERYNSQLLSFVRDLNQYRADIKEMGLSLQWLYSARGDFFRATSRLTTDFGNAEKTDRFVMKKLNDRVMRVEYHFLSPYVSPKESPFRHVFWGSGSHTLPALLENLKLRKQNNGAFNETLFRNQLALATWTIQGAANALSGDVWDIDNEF

koff [s⁻¹] | Binder
0.00135 | B1
0.00141 | B2
0.001 | B3
0.00339 | B4
0.00582 | B5
0.0035 | B6
0.00606 | B7
0.00464 | B8
0.0035 | B9
0.00349 | B10
0.00214 | B11
0.00214 | B12
0.00697 | B13
0.00674 | B14
0.0014 | B15
0.00223 | B16
0.0075 | B17
0.00218 | B18

koff [s⁻¹] | Binder
0.00207 | B19
0.00365 | B20
0.00137 | B21
0.00538 | B22
0.00733 | B23
0.00352 | B24
0.00705 | B25
0.00555 | B26
0.00456 | B27
0.00171 | B28
0.001 | B29
0.00683 | B30
0.00107 | B31
0.00306 | B32
0.00671 | B33
0.00088 | B34
0.00123 | B35
